Each block holds one substance with its values, some of them ahead of it.
Tests used:
[1] = biological target: recombinant mouse CD71 (Sino Biological Inc., Beijing, China) (mouse) (UniProt Q62351); experiment: plate binding to coated recombinant mouse CD71, Alexa Fluor 488 labeled secondary antibody, fluorescence
[2] = biological target: CD71 on primary hepatocytes; experiment: cell-based or functional assay
[3] = biological target: recombinant mouse CD71 (Sino Biological Inc., Beijing, China) (mouse) (UniProt Q62351); experiment: plate binding to coated recombinant mouse CD71, RiboGreen fluorescence detection of the conjugate's siRNA
[4] = biological target: recombinant mouse CD71 (Sino Biological Inc., Beijing, China) (mouse) (UniProt Q62351); experiment: plate binding to coated recombinant mouse CD71; EC50 of the conjugate against that of clone R17

Sequence of UniProt Q62351 (Q62351 89-763 limits assumed): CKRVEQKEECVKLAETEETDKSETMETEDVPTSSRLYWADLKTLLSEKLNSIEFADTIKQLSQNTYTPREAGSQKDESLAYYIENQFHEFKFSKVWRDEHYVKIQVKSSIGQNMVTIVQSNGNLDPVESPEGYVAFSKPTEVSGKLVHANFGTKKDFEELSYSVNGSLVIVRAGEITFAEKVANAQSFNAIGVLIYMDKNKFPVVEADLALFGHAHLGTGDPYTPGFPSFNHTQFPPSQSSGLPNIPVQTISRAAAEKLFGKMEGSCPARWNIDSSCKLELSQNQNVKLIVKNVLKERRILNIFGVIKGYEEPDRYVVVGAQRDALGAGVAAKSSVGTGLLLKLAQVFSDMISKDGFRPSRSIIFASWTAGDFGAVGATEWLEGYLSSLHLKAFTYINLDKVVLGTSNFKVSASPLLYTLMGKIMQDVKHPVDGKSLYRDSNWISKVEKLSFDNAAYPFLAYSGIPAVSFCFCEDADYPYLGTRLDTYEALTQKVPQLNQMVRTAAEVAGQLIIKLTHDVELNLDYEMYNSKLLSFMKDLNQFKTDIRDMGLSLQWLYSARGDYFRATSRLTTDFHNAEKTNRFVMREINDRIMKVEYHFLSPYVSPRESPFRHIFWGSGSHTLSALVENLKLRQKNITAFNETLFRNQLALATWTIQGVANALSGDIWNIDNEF

- EC50 [1]: 1.5 nM
Substance: anti-CD71 antibody (clone R17 217.1.3) purchased from Bio X Cell

- EC50 in inhibiting of ApoB gene expression (primary hepatocytes, quantitative PCR) [2]: 11 nM
- silencing of ApoB at 900 nM (primary hepatocytes, quantitative PCR) [2]: 46%
Substance: clone R17 Fab'-siApoB conjugate linked with the maleimide linker

- EC50 [3]: 29 nM
- fold difference of EC50 between clone R17 and the conjugate [4]: 20 fold
Substance: clone R17 Fab'-siHPRT conjugate linked with the maleimide linker
